# T1: Rat RGMc (rat, UniProt Q8N7M5 36-396, limits assumed)
# T1 sequence (looked up): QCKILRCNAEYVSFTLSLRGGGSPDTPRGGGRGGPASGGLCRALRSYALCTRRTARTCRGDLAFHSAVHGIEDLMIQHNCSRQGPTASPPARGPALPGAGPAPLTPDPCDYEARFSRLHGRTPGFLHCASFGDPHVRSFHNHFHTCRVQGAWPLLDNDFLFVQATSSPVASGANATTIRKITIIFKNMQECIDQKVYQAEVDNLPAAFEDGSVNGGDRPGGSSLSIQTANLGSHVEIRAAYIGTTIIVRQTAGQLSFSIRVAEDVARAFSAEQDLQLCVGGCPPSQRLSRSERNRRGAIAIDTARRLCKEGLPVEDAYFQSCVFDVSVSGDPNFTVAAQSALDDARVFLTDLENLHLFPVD
# T2: Cyno RGMc (cyno, UniProt A0A2K5TJX5 36-401)
# T2 sequence: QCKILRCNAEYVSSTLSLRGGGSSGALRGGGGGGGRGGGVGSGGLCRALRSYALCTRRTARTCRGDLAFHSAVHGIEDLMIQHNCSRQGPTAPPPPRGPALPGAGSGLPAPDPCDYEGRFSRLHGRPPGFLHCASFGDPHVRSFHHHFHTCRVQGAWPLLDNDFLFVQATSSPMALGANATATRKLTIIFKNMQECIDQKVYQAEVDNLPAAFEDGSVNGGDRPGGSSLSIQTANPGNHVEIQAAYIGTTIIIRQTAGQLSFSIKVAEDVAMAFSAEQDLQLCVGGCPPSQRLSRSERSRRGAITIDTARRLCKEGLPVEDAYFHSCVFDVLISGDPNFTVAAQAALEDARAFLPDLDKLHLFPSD
# T3: Human RGMb (human, UniProt Q6NW40 46-413, limits assumed)
# T3 construct: also called repulsive guidance molecule B
# T3 sequence (looked up): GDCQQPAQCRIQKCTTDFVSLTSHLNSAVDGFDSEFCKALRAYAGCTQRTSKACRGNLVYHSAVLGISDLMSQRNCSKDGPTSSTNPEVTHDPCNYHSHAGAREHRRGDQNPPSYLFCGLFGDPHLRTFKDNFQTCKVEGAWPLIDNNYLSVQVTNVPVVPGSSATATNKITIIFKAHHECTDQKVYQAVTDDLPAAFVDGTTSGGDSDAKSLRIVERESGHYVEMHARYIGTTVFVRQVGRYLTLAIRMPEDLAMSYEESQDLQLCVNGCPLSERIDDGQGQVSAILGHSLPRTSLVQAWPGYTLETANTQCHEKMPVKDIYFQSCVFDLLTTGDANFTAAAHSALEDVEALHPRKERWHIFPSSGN
# T4: Cyno RGMa (cyno, UniProt Q9N0A6 54-433, limits assumed)
# T4 sequence (looked up): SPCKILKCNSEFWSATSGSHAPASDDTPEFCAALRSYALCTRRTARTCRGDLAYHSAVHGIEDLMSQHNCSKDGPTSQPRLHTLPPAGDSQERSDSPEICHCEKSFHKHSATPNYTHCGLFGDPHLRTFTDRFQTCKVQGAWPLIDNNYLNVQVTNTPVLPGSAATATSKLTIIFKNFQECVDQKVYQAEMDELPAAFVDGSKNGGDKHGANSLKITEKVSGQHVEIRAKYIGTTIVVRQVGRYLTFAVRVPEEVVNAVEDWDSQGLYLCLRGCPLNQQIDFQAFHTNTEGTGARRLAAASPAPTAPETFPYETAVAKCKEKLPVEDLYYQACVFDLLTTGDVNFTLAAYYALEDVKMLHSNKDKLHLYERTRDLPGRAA
# What was measured:
# Experiment in all cases: SPR (BIAcore), RGM antigen in solution
# Rat RGMc = target: T1, Rat RGMc
# Cyno RGMc = target: T2, Cyno RGMc
# Human RGMb = target: T3, Human RGMb
# Cyno RGMa = target: T4, Cyno RGMa
binder,measurement,setting,value
"hHA-008 (antibody, human IgG1, kappa, L234A L235A, hIgG1 L234A, L235A, kappa; also called hHA-008 (hIgG1mut(LALA)/k)) heavy: not shown light: DVVLTQSPLSLPVTLGQPASISCRSSQSLEESDGYTFLHWFQQRPGQSPRLLIYEVSTRFSGVPDRFSGSGSGTDFTLKISRVEAEDVGVYYCFQATHDPLTFGQGTKLEIKRTVAAPSVFIFPPSDEQLKSGTASVVCLLNNFYPREAKVQWKVDNALQSGNSQESVTEQDSKDSTYSLSSTLTLSKADYEKHKVYACEVTHQGLSSPVTKSFNRGEC",Kd,Rat RGMc,0.23 nM
same,koff,Rat RGMc,0.00032 s⁻¹
same,kon,Rat RGMc,1.4e+06 M⁻¹ s⁻¹
same,Kd,Cyno RGMc,0.12 nM
same,koff,Cyno RGMc,0.00031 s⁻¹
same,kon,Cyno RGMc,2.6e+06 M⁻¹ s⁻¹
same,binding result,Human RGMb,no binding
same,Kd,Cyno RGMa,0.64 nM
same,koff,Cyno RGMa,0.00035 s⁻¹
same,kon,Cyno RGMa,550000 M⁻¹ s⁻¹

# From patent publication US20240417458A1 (DISC MEDICINE, published 2024)
